Measurements taken from publication PMC11228480 (Proceedings of the National Academy of Sciences of the …, 2024).

Tests used:
[1] = target: T1, ryanodine receptor type 1 (RyR1), endogenous, purified from mouse skeletal muscle (mouse, UniProt E9PZQ0 1-5035); assay: pull-down
[2] = target: T1, ryanodine receptor type 1 (RyR1), …; assay: cryo-EM structure
cryo-EM structure = target: the molecule itself; assay: cryo-EM structure

T1 sequence (E9PZQ0 whole entry): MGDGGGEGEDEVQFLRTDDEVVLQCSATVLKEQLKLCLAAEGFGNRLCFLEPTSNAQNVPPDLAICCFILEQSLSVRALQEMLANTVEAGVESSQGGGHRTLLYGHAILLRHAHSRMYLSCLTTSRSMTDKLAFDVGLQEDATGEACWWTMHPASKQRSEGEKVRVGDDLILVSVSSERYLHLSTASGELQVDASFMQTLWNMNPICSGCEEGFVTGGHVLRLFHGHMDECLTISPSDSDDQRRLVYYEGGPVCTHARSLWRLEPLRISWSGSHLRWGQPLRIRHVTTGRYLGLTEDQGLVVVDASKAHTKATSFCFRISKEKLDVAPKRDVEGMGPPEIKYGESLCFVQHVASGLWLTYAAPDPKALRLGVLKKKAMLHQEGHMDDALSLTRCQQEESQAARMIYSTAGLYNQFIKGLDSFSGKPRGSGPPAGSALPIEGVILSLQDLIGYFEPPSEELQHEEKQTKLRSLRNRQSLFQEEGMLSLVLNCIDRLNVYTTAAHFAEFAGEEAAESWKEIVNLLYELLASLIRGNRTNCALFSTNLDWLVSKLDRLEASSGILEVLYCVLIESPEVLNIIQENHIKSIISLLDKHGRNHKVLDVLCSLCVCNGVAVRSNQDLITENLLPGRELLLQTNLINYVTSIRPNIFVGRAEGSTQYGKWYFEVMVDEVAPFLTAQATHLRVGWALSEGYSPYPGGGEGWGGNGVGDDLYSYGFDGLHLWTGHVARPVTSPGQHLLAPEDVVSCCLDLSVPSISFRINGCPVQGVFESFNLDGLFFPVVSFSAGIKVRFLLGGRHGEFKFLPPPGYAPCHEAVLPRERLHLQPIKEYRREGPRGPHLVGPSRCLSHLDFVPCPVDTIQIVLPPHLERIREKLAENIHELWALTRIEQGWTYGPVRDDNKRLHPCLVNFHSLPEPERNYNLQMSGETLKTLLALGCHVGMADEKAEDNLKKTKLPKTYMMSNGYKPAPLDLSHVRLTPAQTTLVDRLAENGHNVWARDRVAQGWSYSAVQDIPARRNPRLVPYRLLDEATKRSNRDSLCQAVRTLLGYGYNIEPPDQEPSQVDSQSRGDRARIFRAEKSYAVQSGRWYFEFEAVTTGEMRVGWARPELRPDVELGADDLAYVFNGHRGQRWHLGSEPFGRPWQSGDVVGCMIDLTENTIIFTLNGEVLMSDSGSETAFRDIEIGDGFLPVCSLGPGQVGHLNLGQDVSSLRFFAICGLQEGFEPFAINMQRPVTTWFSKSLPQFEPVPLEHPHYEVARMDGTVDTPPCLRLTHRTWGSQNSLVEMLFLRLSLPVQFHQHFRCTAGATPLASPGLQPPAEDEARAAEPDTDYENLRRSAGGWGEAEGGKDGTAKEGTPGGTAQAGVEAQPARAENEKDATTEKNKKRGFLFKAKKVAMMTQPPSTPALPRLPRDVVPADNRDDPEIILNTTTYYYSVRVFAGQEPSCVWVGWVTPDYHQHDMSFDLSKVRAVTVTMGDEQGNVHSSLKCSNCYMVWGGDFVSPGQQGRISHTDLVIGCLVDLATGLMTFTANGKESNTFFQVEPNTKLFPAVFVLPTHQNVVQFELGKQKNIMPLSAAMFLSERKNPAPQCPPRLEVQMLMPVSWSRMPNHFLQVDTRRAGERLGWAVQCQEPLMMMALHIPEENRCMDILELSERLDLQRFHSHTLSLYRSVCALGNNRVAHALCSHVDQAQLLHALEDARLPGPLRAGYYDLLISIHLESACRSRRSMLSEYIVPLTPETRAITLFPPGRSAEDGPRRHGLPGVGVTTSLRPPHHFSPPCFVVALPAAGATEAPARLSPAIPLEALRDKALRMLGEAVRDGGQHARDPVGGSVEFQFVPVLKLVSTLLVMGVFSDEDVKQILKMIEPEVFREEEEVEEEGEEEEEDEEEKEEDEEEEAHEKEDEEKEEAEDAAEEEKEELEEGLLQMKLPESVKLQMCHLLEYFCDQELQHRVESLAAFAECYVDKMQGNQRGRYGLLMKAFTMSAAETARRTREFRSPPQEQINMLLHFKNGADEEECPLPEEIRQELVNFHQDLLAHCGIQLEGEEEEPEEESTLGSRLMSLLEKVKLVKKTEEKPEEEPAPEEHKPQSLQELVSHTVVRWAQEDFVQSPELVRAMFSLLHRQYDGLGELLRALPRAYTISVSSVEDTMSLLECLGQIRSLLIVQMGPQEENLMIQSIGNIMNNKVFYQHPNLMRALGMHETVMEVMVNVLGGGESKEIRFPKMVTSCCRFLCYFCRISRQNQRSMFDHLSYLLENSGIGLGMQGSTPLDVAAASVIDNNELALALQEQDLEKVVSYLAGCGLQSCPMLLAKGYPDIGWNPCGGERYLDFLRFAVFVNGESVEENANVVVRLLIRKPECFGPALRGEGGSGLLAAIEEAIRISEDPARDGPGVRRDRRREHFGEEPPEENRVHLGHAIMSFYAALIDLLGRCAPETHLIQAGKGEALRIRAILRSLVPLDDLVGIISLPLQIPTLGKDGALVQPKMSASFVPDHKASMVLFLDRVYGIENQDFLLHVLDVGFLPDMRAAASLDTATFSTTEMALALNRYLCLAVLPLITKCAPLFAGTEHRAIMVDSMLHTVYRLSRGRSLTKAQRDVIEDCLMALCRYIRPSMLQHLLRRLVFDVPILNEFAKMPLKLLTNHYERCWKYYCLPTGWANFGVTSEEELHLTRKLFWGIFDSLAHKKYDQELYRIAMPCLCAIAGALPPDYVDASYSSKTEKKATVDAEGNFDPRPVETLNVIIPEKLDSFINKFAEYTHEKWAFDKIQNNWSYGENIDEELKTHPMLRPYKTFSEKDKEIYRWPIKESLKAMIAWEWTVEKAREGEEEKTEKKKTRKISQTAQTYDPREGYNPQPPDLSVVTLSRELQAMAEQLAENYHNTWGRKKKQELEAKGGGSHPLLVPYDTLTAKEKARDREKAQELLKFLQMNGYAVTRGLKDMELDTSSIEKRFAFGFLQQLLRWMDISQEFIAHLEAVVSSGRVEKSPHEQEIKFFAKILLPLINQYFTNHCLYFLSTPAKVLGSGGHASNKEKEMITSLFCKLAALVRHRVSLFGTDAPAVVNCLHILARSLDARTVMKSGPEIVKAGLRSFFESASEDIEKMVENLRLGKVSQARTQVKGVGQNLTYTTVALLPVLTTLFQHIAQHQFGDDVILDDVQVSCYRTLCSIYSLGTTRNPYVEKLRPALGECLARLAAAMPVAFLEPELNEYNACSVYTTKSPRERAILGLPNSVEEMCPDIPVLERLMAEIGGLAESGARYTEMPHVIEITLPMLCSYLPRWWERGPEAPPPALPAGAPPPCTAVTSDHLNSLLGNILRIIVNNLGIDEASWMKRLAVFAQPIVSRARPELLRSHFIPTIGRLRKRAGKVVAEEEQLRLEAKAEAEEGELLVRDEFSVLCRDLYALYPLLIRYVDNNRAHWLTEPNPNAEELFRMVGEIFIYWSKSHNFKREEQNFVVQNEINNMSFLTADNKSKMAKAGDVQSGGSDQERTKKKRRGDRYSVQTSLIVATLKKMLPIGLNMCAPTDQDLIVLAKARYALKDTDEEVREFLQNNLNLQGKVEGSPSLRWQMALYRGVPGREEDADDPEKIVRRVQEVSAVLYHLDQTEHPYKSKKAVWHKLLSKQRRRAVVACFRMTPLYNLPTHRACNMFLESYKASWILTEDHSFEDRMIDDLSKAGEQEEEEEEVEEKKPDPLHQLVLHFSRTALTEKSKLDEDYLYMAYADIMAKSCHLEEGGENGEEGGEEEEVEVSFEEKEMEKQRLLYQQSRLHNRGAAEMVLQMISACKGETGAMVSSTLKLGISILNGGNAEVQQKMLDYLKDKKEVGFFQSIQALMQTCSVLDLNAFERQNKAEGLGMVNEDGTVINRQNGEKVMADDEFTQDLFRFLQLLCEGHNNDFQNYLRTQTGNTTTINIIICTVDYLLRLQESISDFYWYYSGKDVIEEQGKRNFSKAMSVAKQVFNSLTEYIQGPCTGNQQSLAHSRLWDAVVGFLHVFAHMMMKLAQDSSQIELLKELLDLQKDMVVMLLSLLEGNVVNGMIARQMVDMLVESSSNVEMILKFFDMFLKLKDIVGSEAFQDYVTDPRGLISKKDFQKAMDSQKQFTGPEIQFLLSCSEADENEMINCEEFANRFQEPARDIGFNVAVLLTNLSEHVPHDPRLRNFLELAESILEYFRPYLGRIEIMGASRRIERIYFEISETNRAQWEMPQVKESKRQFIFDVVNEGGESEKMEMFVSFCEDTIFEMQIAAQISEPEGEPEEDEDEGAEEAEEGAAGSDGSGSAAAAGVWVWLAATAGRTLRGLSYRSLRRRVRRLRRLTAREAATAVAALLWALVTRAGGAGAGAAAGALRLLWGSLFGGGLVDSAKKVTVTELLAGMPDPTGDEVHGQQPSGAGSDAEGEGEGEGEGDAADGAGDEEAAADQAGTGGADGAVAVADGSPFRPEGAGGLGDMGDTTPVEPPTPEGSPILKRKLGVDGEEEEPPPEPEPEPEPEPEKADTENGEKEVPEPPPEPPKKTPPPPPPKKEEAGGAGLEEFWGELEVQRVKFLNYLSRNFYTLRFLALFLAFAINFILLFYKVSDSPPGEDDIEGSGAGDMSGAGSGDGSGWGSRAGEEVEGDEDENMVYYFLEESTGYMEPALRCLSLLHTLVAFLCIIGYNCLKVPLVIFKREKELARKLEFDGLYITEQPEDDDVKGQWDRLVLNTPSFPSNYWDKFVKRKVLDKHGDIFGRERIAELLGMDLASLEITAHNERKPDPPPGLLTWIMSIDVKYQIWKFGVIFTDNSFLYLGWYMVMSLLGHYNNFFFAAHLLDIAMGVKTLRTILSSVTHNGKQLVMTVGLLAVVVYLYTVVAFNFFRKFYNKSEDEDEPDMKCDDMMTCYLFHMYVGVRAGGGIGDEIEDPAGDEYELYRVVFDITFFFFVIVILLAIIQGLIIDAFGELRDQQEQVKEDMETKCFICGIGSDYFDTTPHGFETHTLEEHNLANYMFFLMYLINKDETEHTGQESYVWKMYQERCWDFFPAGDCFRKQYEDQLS

binding result [1] | binding result [2] | Binder | stoichiometry N (cryo-EM structure)
binds | – | GST-tagged S100A1 (natural protein) MGSELESAMETLINVFHAHSGQEGDKYKLSKKELKDLLQTELSGFLDVQKDADAVDKVMKELDENGDGEVDFKEYVVLVAALTVACNNFFWETS | –
– | binds | recombinant mouse S100A1 (untagged) (natural protein) MGSELESAMETLINVFHAHSGQEGDKYKLSKKELKDLLQTELSGFLDVQKDADAVDKVMKELDENGDGEVDFKEYVVLVAALTVACNNFFWETS | 2
